Data set [1] addresses K194A mutant of L. plantarum CGL (cystathionine γ-lyase from Lactobacillus plantarum SN35N) (Lactobacillus plantarum SN35N). In words: crystal structure; K194A CGL at 9 mg/mL with PLP and 2 mM cystathionine or 2 mM L-serine; sitting-drop vapor diffusion, precipitant 0.4 M KH2PO4 and 0.4 M Na2HPO4; tetramer seen in the crystal.
For data set [2], the target named is T1, L. plantarum CGL (Lactiplantibacillus plantarum, UniProt F9UT53, K194A).
T1 construct: gene cblB; C-terminal His6 tag (kept), pET-21a(+), E. coli BL21(DE3); homotetramer, active site between two subunits; PCR primers (translated) give N-terminus MRTLTMKFETQ and C-terminus FASIQAD before LE-His6
In words: X-ray crystal structure, […] Å. It counts as binding. The following applies: covalent; external aldimine with PLP, substrate analogue, phosphate at distal carboxyl site.

In data set [3] the target is T1, L. plantarum CGL. The data set can be described thus: X-ray crystal structure, […] Å. Type of data set: binding. The following applies: covalent; external aldimine with PLP at active site, inactive mutant.
Substrate in data set [4]: N[C@@H](CCS)C(=O)O
In words: H2S release as PbS, A390. It counts as biochemical, Lactiplantibacillus plantarum. The settings on record: L-homocysteine gamma-lyase. From the text:
(§1) H2S release as PbS, A390 on L. plantarum CGL

Substrate in data set [5]: N[C@@H](CS)C(=O)O
In words: H2S release as PbS, A390. It counts as biochemical, Lactiplantibacillus plantarum. The following applies: L-cysteine beta-lyase, 100 mM HEPES-KOH pH 7.5, 5 mM TCEP, 0.4 mM lead(II) nitrate, 37 °C.
Source text: as §1

Substrate in data set [6]: N[C@@H](CSSC[C@H](N)C(=O)O)C(=O)O
In words: lactate dehydrogenase-coupled pyruvate formation, NADH A340. Type of data set: biochemical, Lactiplantibacillus plantarum. The settings on record: L-cystine beta-lyase, 100 mM HEPES-KOH pH 7.5, 0.2 mM NADH, 37 °C. From the text: lactate dehydrogenase-coupled pyruvate formation, NADH A340 on L. plantarum CGL

Substrate in the data set “DTNB thiol release, A412”: N[C@@H](CCSC[C@H](N)C(=O)O)C(=O)O
The data set can be described thus: DTNB thiol release, A412. Type of data set: biochemical, Lactiplantibacillus plantarum. The settings on record: cystathionase, 100 mM HEPES-KOH pH 7.5, 0.5 mM DTNB, 37 °C. From the text: DTNB thiol release, A412 on L. plantarum CGL

[7] abbreviates: 100 mM HEPES-KOH pH 7.5, 5 mM TCEP, 0.4 mM lead(II) nitrate, 37 °C.
Setting [8] is: buffer same, fitted with substrate inhibition, called inaccurate by authors.

For orientation: stoichiometry N means a count of units in the complex or per binding partner. In general, Km refers to the concentration of substrate that gives half-maximal velocity. What is called kcat is the maximal rate divided by the concentration of active sites. Broadly, the kcat/Km is the turnover number divided by the Michaelis constant.

T1 sequence (F9UT53 entry or part of it K194A): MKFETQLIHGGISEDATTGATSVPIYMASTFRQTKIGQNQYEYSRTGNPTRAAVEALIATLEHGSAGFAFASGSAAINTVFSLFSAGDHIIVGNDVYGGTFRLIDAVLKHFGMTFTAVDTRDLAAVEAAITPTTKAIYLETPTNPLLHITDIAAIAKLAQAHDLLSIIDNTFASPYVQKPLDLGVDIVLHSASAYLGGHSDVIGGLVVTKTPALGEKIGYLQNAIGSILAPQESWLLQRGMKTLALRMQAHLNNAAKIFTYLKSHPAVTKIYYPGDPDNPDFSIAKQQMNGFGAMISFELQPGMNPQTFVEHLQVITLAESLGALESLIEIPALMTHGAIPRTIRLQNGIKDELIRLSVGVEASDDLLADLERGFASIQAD

In the case of “K194A mutant of L. plantarum CGL (cystathionine γ-lyase from Lactobacillus plantarum SN35N) (enzyme)”, the stoichiometry N in data set [1] amounted to 4.
Regarding `N[C@@H](CO)C(=O)O` [L-serine], the “X-ray crystal structure, 2.75 Å” value on L. plantarum CGL [2] is “L-serine was also found as part of the external aldimine formed with PLP”.
As to `N[C@@H](CCSC[C@H](N)C(=O)O)C(=O)O` [cystathionine], the “X-ray crystal structure, 3.10 Å” value at L. plantarum CGL [3] is recorded as “Cystathionine was found in the crystal structure as a part of the external aldimine”.

B1: L. plantarum CGL (Lactiplantibacillus plantarum WCFS1) (protein)
chain: MKFETQLIHGGISEDATTGATSVPIYMASTFRQTKIGQNQYEYSRTGNPTRAAVEALIATLEHGSAGFAFASGSAAINTVFSLFSAGDHIIVGNDVYGGTFRLIDAVLKHFGMTFTAVDTRDLAAVEAAITPTTKAIYLETPTNPLLHITDIAAIAKLAQAHDLLSIIDNTFASPYVQKPLDLGVDIVLHSASKYLGGHSDVIGGLVVTKTPALGEKIGYLQNAIGSILAPQESWLLQRGMKTLALRMQAHLNNAAKIFTYLKSHPAVTKIYYPGDPDNPDFSIAKQQMNGFGAMISFELQPGMNPQTFVEHLQVITLAESLGALESLIEIPALMTHGAIPRTIRLQNGIKDELIRLSVGVEASDDLLADLERGFASIQAD
notes: C-terminal His6 tag (kept), pET-21a(+), E. coli BL21(DE3); homotetramer, active site between two subunits; PCR primers (translated) give N-terminus … and C-terminus FASIQAD before LE-His6
As for B1, the Km worked out at 6300 ± 700 µM in the data set “H2S release as PbS, A390 [4]” (setting [7]); 35000 ± 6000 µM in “H2S release as PbS, A390 [5]”; 120 ± 10 µM in data set [6]; 450 ± 10 µM in the data set “DTNB thiol release, A412”. Besides, the turnover number (kcat) in “H2S release as PbS, A390 [4]” (setting [7]) came out at 0.081 ± 0.004 s⁻¹; in the data set “H2S release as PbS, A390 [5]” it was 0.3 ± 0.03 s⁻¹; in data set [6], 0.12 ± 0.01 s⁻¹; in “DTNB thiol release, A412”, 0.49 ± 0.01 s⁻¹. Further, the kcat/Km came out at 13 ± 1 M⁻¹ s⁻¹ in the data set “H2S release as PbS, A390 [4]” (setting [7]); 8.6 ± 1.8 M⁻¹ s⁻¹ in the data set “H2S release as PbS, A390 [5]”; 1000 ± 100 M⁻¹ s⁻¹ in data set [6]; 1100 ± 100 M⁻¹ s⁻¹ in the data set “DTNB thiol release, A412”.

B2: L. plantarum CGL (Lactiplantibacillus plantarum WCFS1; Y97F) (protein)
chain: MKFETQLIHGGISEDATTGATSVPIYMASTFRQTKIGQNQYEYSRTGNPTRAAVEALIATLEHGSAGFAFASGSAAINTVFSLFSAGDHIIVGNDVFGGTFRLIDAVLKHFGMTFTAVDTRDLAAVEAAITPTTKAIYLETPTNPLLHITDIAAIAKLAQAHDLLSIIDNTFASPYVQKPLDLGVDIVLHSASKYLGGHSDVIGGLVVTKTPALGEKIGYLQNAIGSILAPQESWLLQRGMKTLALRMQAHLNNAAKIFTYLKSHPAVTKIYYPGDPDNPDFSIAKQQMNGFGAMISFELQPGMNPQTFVEHLQVITLAESLGALESLIEIPALMTHGAIPRTIRLQNGIKDELIRLSVGVEASDDLLADLERGFASIQAD
notes: as for B1
Regarding B2, the Km in the data set “H2S release as PbS, A390 [4]” (setting [8]) is 1200 ± 800 µM; in “H2S release as PbS, A390 [5]” (pH 7.5), 160 ± 30 µM; in data set [6], 56 ± 9 µM; in “DTNB thiol release, A412” it was 770 ± 210 µM. Also, the kcat in the data set “H2S release as PbS, A390 [4]” (setting [8]) was 0.042 ± 0.02 s⁻¹; in the data set “H2S release as PbS, A390 [5]” (pH 7.5), 0.015 ± 0.001 s⁻¹; in data set [6], 0.1 ± 0.01 s⁻¹; in the data set “DTNB thiol release, A412” it was 0.0056 ± 0.0007 s⁻¹. Besides, the kcat/Km in the data set “H2S release as PbS, A390 [4]” (setting [8]) was 35 ± 27 M⁻¹ s⁻¹; in “H2S release as PbS, A390 [5]” (pH 7.5), 96 ± 18 M⁻¹ s⁻¹; in data set [6], 1800 ± 300 M⁻¹ s⁻¹; in “DTNB thiol release, A412” it was 7.2 ± 2.2 M⁻¹ s⁻¹.
